B1: Broad substrate specificity ATP-binding cassette transporter ABCG2 (Homo sapiens), Q9UNQ0 (parent)
chain: MSSSNVEVFIPVSQGNTNGFPATASNDLKAFTEGAVLSFHNICYRVKLKSGFLPCRKPVEKEILSNINGIMKPGLNAILGPTGGGKSSLLDVLAARKDPSGLSGDVLINGAPRPANFKCNSGYVVQDDVVMGTLTVRENLQFSAALRLATTMTNHEKNERINRVIQELGLDKVADSKVGTQFIRGVSGGERKRTSIGMELITDPSILFLDEPTTGLDSSTANAVLLLLKRMSKQGRTIIFSIHQPRYSIFKLFDSLTLLASGRLMFHGPAQEALGYFESAGYHCEAYNNPADFFLDIINGDSTAVALNREEDFKATEIIEPSKQDKPLIEKLAEIYVNSSFYKETKAELHQLSGGEKKKKITVFKEISYTTSFCHQLRWVSKRSFKNLLGNPQASIAQIIVTVVLGLVIGAIYFGLKNDSTGIQNRAGVLFFLTTNQCFSSVSAVELFVVEKKLFIHEYISGYYRVSSYFLGKLLSDLLPMRMLPSIIFTCIVYFMLGLKPKADAFFVMMFTLMMVAYSASSMALAIAAGQSVVSVATLLMTICFVFMMIFSGLLVNLTTIASWLSWLQYFSIPRYGFTALQHNEFLGQNFCPGLNATGNNPCNYATCTGEEYLVKQGIDLSPWGLWKNHVALACMIVIFLTIAYLKLLFLKKYS

Variants of: B1
Details: with ubc_human UBC

effect of a mutation on the interaction	Variant
increasing interaction	N596Q
